Experiments:
[1] = biological target: T1, human Claudin18.2 (CLDN18.2) (UniProt P56856 1-261); experiment: FACS cell binding; GAXC031 cells
[2] = biological target: T1, human Claudin18.2 (CLDN18.2); experiment: FACS cell binding; SNU620 cells
[3] = biological target: T1, human Claudin18.2 (CLDN18.2); experiment: FACS cell binding; KATO III cells
SNU620 cells = SNU620 cells (UniProt P56856 1-261); experiment: FACS cell binding; SNU620 cells
GAXC031 cells = GAXC031 cells (UniProt P56856 1-261); experiment: FACS cell binding; GAXC031 cells

Binder	EC50 [1] [nM]	also measured
humanized Ab17 (VH5×VLN1) (antibody, V domains shown) VH: QVQLQESGPGLVKPSQTLSLTCTVSGFSLTSYAISWVRQPAGKGLEWLGEIWTGGGTNYNSALKSRVSISKDNSKSQVFLKLSSVTAADTARYYCGRLSYGNSLDYWGQGTLVTVSS VL: DIVMTQSPDSTTVLLGERATINCKSSQSLLNSGNQKNYLAWYQQKPGQPPKLLIYWASTRESGVPDRFSGSGSGTDFTLTISSLQAEDVAVYYCQNNFIYPLTFGPGTKLEIK	48.9	
Ab10 (antibody, V domains shown) VH: EVMLVESGGGLVKPGGSLKLSCAASGFTFSSYTMSWVRQTPEKRLEWVATISVIGGNTYYVDSVKGRFTISRDKAKNTLYLQMSSLRSEDTALYYCARLGQTQRNAMDYWGQGTSVTVSS VL: DIVMTQSPSSLSVSAGEKVTMSCKSSQSLLNSGNQKNYLAWYQQKPGQPPKLLIYGASTRESGVPDRFTGSGSGTDFTLTISSVQAEDLAVYYCQNDYSYPLTFGAGTKLELK		EC50 [2]: 5.54 nM; EC50 [3]: 20.9 nM
humanized Ab10 (VH3×VLN1) (antibody, V domains shown) VH: EVQLVESGGGLVQPGGSLRLSCAASGFTFSSYTMSWVRQAPEKRLEWVATISVIGGNTYYVDSVKGRFTISRDKAKNTLYLQMNSLRAEDTALYYCARLGQTQRNAMDYWGQGTLVTVSS VL: DIVMTQSPDSLAVSAGERATMNCKSSQSLLNSGNQKNYLAWYQQKPGQPPKLLIYGASTRESGVPDRFSGSGSGTDFTLTISSLQAEDVAVYYCQNDYSYPLTFGAGTKLEIK	60.9	
humanized Ab17 (VH1×VLN1) (antibody, V domains shown) VH: QVQLKESGPGLVKPSETLSLTCTVSGFSLTSYAISWVRQPPGKGLEWLGEIWTGGGTNYNSALKSRVSISKDNSKSQVFLKLSSVQAADTARYYCGRLSYGNSLDYWGQGTLVTVSS VL: DIVMTQSPDSTTVLLGERATINCKSSQSLLNSGNQKNYLAWYQQKPGQPPKLLIYWASTRESGVPDRFSGSGSGTDFTLTISSLQAEDVAVYYCQNNFIYPLTFGPGTKLEIK	43.7	
IMB362 (antibody, V domains shown) VH: QVQLQQPGAELVRPGASVKLSCKASGYTFTSYWINWVKQRPGQGLEWIGNIYPSDSYTNYNQKFKDKATLTVDKSSSTAYMQLSSPTSEDSAVYYCTRSWRGNSFDYWGQGTTLTVSS VL: DIVMTQSPSSLTVTAGEKVTMSCKSSQSLLNSGNQKNYLTWYQQKPGQPPKLLIYWASTRESGVPDRFTGSGSGTDFTLTISSVQAEDLAVYYCQNDYSYPFTFGSGTKLEIKR		EC50 (SNU620 cells): ~7540 nM
chAb15 (antibody, V domains shown) VH: EVMLVESGGDLVKPGGSLKLSCAASGFTFSTYTMSWVRQTPEKRLEWVATIVGGGGYTYYLDSVKGRFTISRDNAKNTLYLQMISLRSEDTALYYCARMGLTQRNALDYWGQGTSITVSS VL: DIVMTQSPSSLSVSEGEKVTLNCKSSQSLFNSGNQKNYLAWYQQKPGQPPKLLIYGASTRESGVPDRFTGSGFGTDFTLTISSVQAEDLAVYYCQNDHTYPLTFGAGAKLELK	25.1	
humanized Ab15 (VH3×VLN1) (antibody, V domains shown) VH: EVMLVESGGGVVQPGGSLRLSCAASGFTFSTYTMSWVRQTPEKRLEWVATIVGGGGYTYYLDSVKGRFTISRDNAKNTLYLQMNSLRTEDTALYYCARMGLTQRNALDYWGQGTLITVSS VL: DIVMTQSPDSLAVSLGERATINCKSSQSLFNSGNQKNYLAWYQQKPGQPPKLLIYGASTRESGVPDRFSGSGFGTDFTLTISSLQAEDVAVYYCQNDHTYPLTFGAGTKLEIK	28.6	
Ab15 (antibody, V domains shown) VH: EVMLVESGGDLVKPGGSLKLSCAASGFTFSTYTMSWVRQTPEKRLEWVATIVGGGGYTYYLDSVKGRFTISRDNAKNTLYLQMISLRSEDTALYYCARMGLTQRNALDYWGQGTSITVSS VL: DIVMTQSPSSLSVSEGEKVTLNCKSSQSLFNSGNQKNYLAWYQQKPGQPPKLLIYGASTRESGVPDRFTGSGFGTDFTLTISSVQAEDLAVYYCQNDHTYPLTFGAGAKLELK		EC50 [2]: 5.32 nM; EC50 [3]: 27.2 nM
IMAB362 (antibody, V domains shown) VH: QVQLQQPGAELVRPGASVKLSCKASGYTFTSYWINWVKQRPGQGLEWIGNIYPSDSYTNYNQKFKDKATLTVDKSSSTAYMQLSSPTSEDSAVYYCTRSWRGNSFDYWGQGTTLTVSS VL: DIVMTQSPSSLTVTAGEKVTMSCKSSQSLLNSGNQKNYLTWYQQKPGQPPKLLIYWASTRESGVPDRFTGSGSGTDFTLTISSVQAEDLAVYYCQNDYSYPFTFGSGTKLEIKR		EC50 (GAXC031 cells): 452 nM
humanized Ab10 (VHN1×VLN1) (antibody, V domains shown) VH: EVMLVESGGGLVQPGGSLRLSCAASGFTFSSYTMSWVRQTPGKRLEWVATISVIGGNTYYVDSVKGRFTISRDKSKNTLYLQMNSLRAEDTAVYYCARLGQTQRNAMDYWGQGTLVTVSS VL: DIVMTQSPDSLAVSAGERATMNCKSSQSLLNSGNQKNYLAWYQQKPGQPPKLLIYGASTRESGVPDRFSGSGSGTDFTLTISSLQAEDVAVYYCQNDYSYPLTFGAGTKLEIK	43.8	
chAb10 (antibody, V domains shown) VH: EVMLVESGGGLVKPGGSLKLSCAASGFTFSSYTMSWVRQTPEKRLEWVATISVIGGNTYYVDSVKGRFTISRDKAKNTLYLQMSSLRSEDTALYYCARLGQTQRNAMDYWGQGTSVTVSS VL: DIVMTQSPSSLSVSAGEKVTMSCKSSQSLLNSGNQKNYLAWYQQKPGQPPKLLIYGASTRESGVPDRFTGSGSGTDFTLTISSVQAEDLAVYYCQNDYSYPLTFGAGTKLELK	49.2	
humanized Ab15 (VHN1×VL2) (antibody, V domains shown) VH: EVMLVESGGGLVQPGGSLRLSCAASGFTFSTYTMSWVRQTPGKRLEWVATIVGGGGYTYYLDSVKGRFTISRDNSKNTLYLQMNSLRAEDTAVYYCARMGLTQRNALDYWGQGTSITVSS VL: DIVMTQSPLSLPVTPGEPASISCKSSQSLFNSGNQKNYLAWYLQKPGQPPKLLIYGASTRESGVPDRFTGSGFGTDFTLKISRVEAEDVGVYYCQNDHTYPLTFGAGTKLEIK	32.2	
Ab17 (antibody, V domains shown) VH: QVQLKESGPGLVAPSQSLSITCTVSGFSLTSYAISWVRQPPGKGLEWLGEIWTGGGTNYNSALKSRLSISKDNSKSQVFLKMNSLQTDDTARYYCGRLSYGNSLDYWGQGTTLTVSS VL: DIVMTQSPSSLTVTAGEKVTMSCKSSQSLLNSGNQKNYLTWYQQKPGQPPKLLIYWASTRESGVPDRFTGSGSGTDFTLTVSSVQAEDLAVYYCQNNFIYPLTFGPGTKLELK		EC50 [2]: 10.8 nM; EC50 [3]: 39.3 nM
chAb17 (antibody, V domains shown) VH: QVQLKESGPGLVAPSQSLSITCTVSGFSLTSYAISWVRQPPGKGLEWLGEIWTGGGTNYNSALKSRLSISKDNSKSQVFLKMNSLQTDDTARYYCGRLSYGNSLDYWGQGTTLTVSS VL: DIVMTQSPSSLTVTAGEKVTMSCKSSQSLLNSGNQKNYLTWYQQKPGQPPKLLIYWASTRESGVPDRFTGSGSGTDFTLTVSSVQAEDLAVYYCQNNFIYPLTFGPGTKLELK	47	
